In patent EP4796128A1, “ANTI-C-MET ANTIBODY-DRUG CONJUGATE COMPRISING CAMPTOTHECIN DERIVATIVE” (Celltrion, Inc., priority 2023, dated 2025):
Values joined by “and” are separate entries in the source; they are usually repeats but may differ in a detail not shown here. Identical values can stand only once.

What was measured:
Format in all cases: in vivo, BALB/c nude mice
[1] = test system: NCI-H441 human lung cancer xenograft; assay: NCI-H441 human lung cancer xenograft model; conditions: 3 mg/kg i.v. QW × 2 weeks
Experimental: NCI-H441 tumor cells (ATCC, Catalog No. HTB-174) were maintained in vitro in RPMI 1640 medium supplemented with 10% FBS and 1% antibiotic-antimycotic at 37°C and 5% CO2 in air. Tumor cells NCI-H441 were routinely passaged twice a week by treatment with trypsin-EDTA. The cells with exponential growth were harvested and counted for tumor inoculation.
Mice were randomly assigned to groups of 10 each, and tumor cells were inoculated into the mice according to the experimental conditions shown in Table 19 below. Specifically, NCI-H441 tumor cells (5 × 10^6 cells/mouse) were subcutaneously inoculated into the right flank of each mouse together with 0.2 mL of PBS containing Matrigel (1:1). Treatment was started on day 14 after inoculation, when the mean tumor volume reached 180 mm^3, and the treatment start date was set as day 0. This experiment was performed for 35 days.
(§1) Statistical analysis was performed on the data obtained 35 days after the start of the experiment to determine differences in tumor volume and tumor weight between groups. […] All data were analyzed using SPSS 29.0. p < 0.05 was considered statistically significant.

[2] = test system: Hs746T human gastric cancer xenograft; assay: Hs746T human gastric cancer xenograft model; conditions: for TGI: Day 13; for T/C: Day 13, tumor volume vs P23 isotype mAb group
Experimental: Hs746T tumor cells (ATCC, Catalog No. HTB-135) were cultured as a monolayer in DMEM medium supplemented with 10% FBS and 1% antibiotic-antimycotic at 37°C in an atmosphere of 5% CO2 in air. Tumor cells (Hs746T) were routinely passaged three times a week by treating with trypsin-EDTA. The cells with exponential growth were harvested and counted for tumor inoculation.
Mice were randomly assigned to groups of six each, and tumor cells were inoculated into the mice according to the experimental conditions shown in Table 9 below. Specifically, Hs746T tumor cells (2 × 10^6 cells/mouse) were subcutaneously inoculated into the right flank of each mouse together with 0.1 mL of PBS containing Matrigel. The teatment was started on day 15 after inoculation, when the average tumor volume reached 197 mm^3, and the date when the treatment started was set as Day 0. This experiment was performed for 27 days.
The experimental endpoints were set when tumor growth stopped or the mice were cured. The size and volume of the tumor were measured twice a week in two and three dimensions using calipers, and these were used to calculate the T/C (tumor volume over control volume) and TGI (tumor growth inhibition) values.
In the T/C values (%) above, T and C represent the average volume of the experimental group and the control group on a specific day, respectively, and the T/C value is an index for the antitumor effect.
The TGI values were calculated using the following equation, where Ti is a mean tumor volume of the treatment group on a specific date, T0 is a mean tumor volume of the treatment group on the first day of treatment, Vi is a mean tumor volume of the vehicle control group on the same day as Ti, and V0 is a mean tumor volume of the vehicle group on the first day of treatment. TGI (%) = [1−(Ti−T0)/(Vi−V0)] × 100 [formula]
All data were analyzed using SPSS 29.0. p < 0.05 was considered statistically significant.

[3] = test system: LU-01-0439 human lung cancer xenograft; assay: LU-01-0439 human lung cancer xenograft (PDX) model; conditions: 10 mg/kg i.v. QW × 2 weeks
Source text: It was aimed to confirm the anticancer effect of the ADC of the present invention from the LU-01-0439 human lung cancer xenograft model of BALB/c nude mice (Zhejiang Vital River Laboratory Animal Technology Co., LTD.).
The lung cancer PDX model of LU-01-0439 was generated by transplanting surgically resected clinical samples into immunodeficient mice and was established as passage 0 (P0). Then, the cells were subcultured through serial transplantation, and the passage after P0 was defined as passage 1 (P1). The tumor recovered from the frozen P2 tumor tissue was designated as FP3, and finally, FP4 tumor tissue was prepared for the experiment.
Mice were randomly assigned to groups of eight each, and tumors were implanted into the mice according to the experimental conditions shown in Table 14 below. Specifically, LU-01-0439 FP4 tumor fragments (20-30 mm^3) were subcutaneously implanted into the right flank of each mouse. Treatment was started on day 24 after tumor transplantation, when the mean tumor volume reached 175 mm^3, and the treatment start date was set as Day 0. This experiment was performed for 35 days.
The tumor size was measured using the same method as in Experimental Example 3-1 above.
as §1

[4] = Day 35, tumor volume vs P23 isotype mAb group
[5] = Day 35, tumor weight vs P23 isotype mAb group

B1: P23-PBX-7016: isotype ADC: anti-influenza A antibody (Navivumab, P23) conjugated with mc-GGFG-PBX-7016; DAR 8 (conjugate, chains of the INN, looked up)
VH: QVQLVQSGAEVKKPGASVKVSCKTSGYSFSTYGVSWVRQAPGQGPEWVGWISAYTGITDYAQKFQGRVTLTTDATTATAFLDLRSLRPDDTATYFCARDKVQGRVEVGSGGRHDYWGQGTLVIVSS
VL: EVVLTQSPGTLALPPGERATLSCRASHRVGSTYIAWYQQKSGQAPRRLIYGASNRATDIPDRFSGSGSGTDFTLTIRRLEPEDSAVYYCQQFSVSPWTFGQGTRVEIK
modifications: mc-GGFG-PBX-7016 payload, DAR 8
Tumor Volume ([1]; Day 0, mean ± SEM): 180 ± 13 mm^3 | Tumor Volume ([1]; Day 4, mean ± SEM): 198 ± 16 mm^3 | Tumor Volume ([1]; Day 7, mean ± SEM): 171 ± 14 mm^3 | Tumor Volume ([1]; Day 11, mean ± SEM): 140 ± 14 mm^3 | Tumor Volume ([1]; Day 14, mean ± SEM): 131 ± 14 mm^3 | Tumor Volume ([1]; Day 18, mean ± SEM): 134 ± 15 mm^3 | Tumor Volume ([1]; Day 21, mean ± SEM): 138 ± 17 mm^3 | Tumor Volume ([1]; Day 25, mean ± SEM): 155 ± 20 mm^3 | Tumor Volume ([1]; Day 28, mean ± SEM): 190 ± 33 mm^3 | Tumor Volume ([1]; Day 32, mean ± SEM): 235 ± 42 mm^3 | TGI ([1]; Day 35): 91.34% | Tumor Weight on Day 35 ([1]; Day 35): 0.318 ± 0.059 g | Tumor Volume ([1]; Day 35, mean ± SEM): 303 ± 54 mm^3 | T/C [1, 4]: 19.00% | T/Cweight [1, 5]: 19.05% | Tumor Volume ([2]; 0.3 mg/kg i.v. single dose, Day 0, mean ± SEM): 197 ± 24 mm^3 | Tumor Volume ([2]; 0.3 mg/kg i.v. single dose, Day 3, mean ± SEM): 309 ± 37 mm^3 | Tumor Volume ([2]; 0.3 mg/kg i.v. single dose, Day 6, mean ± SEM): 512 ± 87 mm^3 | Tumor Volume ([2]; 0.3 mg/kg i.v. single dose, Day 10, mean ± SEM): 873 ± 170 mm^3 | TGI ([2]; 0.3 mg/kg i.v. single dose): 26.87% | T/C ([2]; 0.3 mg/kg i.v. single dose): 76.49% | Tumor Volume ([2]; 0.3 mg/kg i.v. single dose, Day 20, mean ± SEM): 2149 ± 475 mm^3 | Tumor Volume ([2]; 0.3 mg/kg i.v. single dose, Day 27, mean ± SEM): 2,175 ± 874 (n = 3) mm^3 | Tumor Volume ([2]; 1 mg/kg i.v. single dose, Day 0, mean ± SEM): 197 ± 24 mm^3 | Tumor Volume ([2]; 1 mg/kg i.v. single dose, Day 3, mean ± SEM): 298 ± 36 mm^3 | Tumor Volume ([2]; 1 mg/kg i.v. single dose, Day 6, mean ± SEM): 476 ± 80 mm^3 | Tumor Volume ([2]; 1 mg/kg i.v. single dose, Day 10, mean ± SEM): 807 ± 171 mm^3 | TGI ([2]; 1 mg/kg i.v. single dose): 27.98% | T/C ([2]; 1 mg/kg i.v. single dose): 75.52% | Tumor Volume ([2]; 1 mg/kg i.v. single dose, Day 20, mean ± SEM): 2,089 ± 416 mm^3 | Tumor Volume ([2]; 3 mg/kg i.v. single dose, Day 0, mean ± SEM): 197 ± 23 mm^3 | Tumor Volume ([2]; 3 mg/kg i.v. single dose, Day 3, mean ± SEM): 281 ± 55 mm^3 | Tumor Volume ([2]; 3 mg/kg i.v. single dose, Day 6, mean ± SEM): 318 ± 72 mm^3 | Tumor Volume ([2]; 3 mg/kg i.v. single dose, Day 10, mean ± SEM): 308 ± 80 mm^3 | TGI ([2]; 3 mg/kg i.v. single dose): 84.88% | Tumor Volume ([2]; 3 mg/kg i.v. single dose, Day 13, mean ± SEM): 405 mm^3 and 405 ± 125 mm^3 | T/C ([2]; 3 mg/kg i.v. single dose): 25.71% | Tumor Volume ([2]; 3 mg/kg i.v. single dose, Day 17, mean ± SEM): 669 ± 192 mm^3 | Tumor Volume ([2]; 3 mg/kg i.v. single dose, Day 20, mean ± SEM): 826 ± 223 mm^3 | Tumor Volume ([3]; Day 0, mean ± SEM): 175 ± 15 mm^3 | Tumor Volume ([3]; Day 3, mean ± SEM): 209 ± 22 mm^3 | Tumor Volume ([3]; Day 7, mean ± SEM): 238 ± 22 mm^3 | Tumor Volume ([3]; Day 10, mean ± SEM): 247 ± 19 mm^3 | Tumor Volume ([3]; Day 14, mean ± SEM): 217 ± 18 mm^3 | Tumor Volume ([3]; Day 17, mean ± SEM): 217 ± 28 mm^3 | Tumor Volume ([3]; Day 21, mean ± SEM): 205 ± 42 mm^3 | Tumor Volume ([3]; Day 24, mean ± SEM): 263 ± 61 mm^3 | Tumor Volume ([3]; Day 28, mean ± SEM): 393 ± 90 mm^3 | Tumor Volume ([3]; Day 31, mean ± SEM): 536 ± 117 mm^3 | TGI ([3]; Day 35): 64.62% | Tumor Weight on Day 35 ([3]; Day 35): 0.561 ± 0.117 g | Tumor Volume ([3]; Day 35, mean ± SEM): 630 ± 137 mm^3 | T/C [3, 4]: 43.11% | T/C [3, 5]: 42.93%
